Laboratory results: the nanobody polyreactivity screen of Harvey et al. (2022)

Assay: yeast display, Sf9 membrane polyspecificity reagent, FACS + sequencing; frameworks hold sequencing errors
Procedure, shortened: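 Galactose-induced (36–48 hours) yeast carrying a synthetic nanobody display library were exposed to 10% biotinylated, detergent-solubilized Sf9 membrane reagent at 4 °C for 1 hour. FACS followed streptavidin microbead enrichment, using low and high (top ~1%) gates for expression (anti-HA) and reagent binding (streptavidin). Colony PCR, MiSeq 2 × 250 sequencing and CDR-length filtering followed. Labels for polyreactivity reflect the gate of origin.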

Sequence	polyreactivity (PSR sort gate)
QVQLVESGGCLVQAGGSLRLSCAASGLTIAYYAMGWYRQAPGKERDLVAAITSSGTSTYYADSVKGRFTISRDNAKNTVYLQMNSLKPEDTAVYYCNKYPYFVYGDYGYWGQGTQVTVSS	high polyreactivity
QVQLVESGGGLVQAGGSLRLSCAASGSSFSRNAMGWYRQAPGKESELVAAISWSGGRTYYAASVKGRFTISRDNAKNTVYLQMNSLKPEDTAVYYCAKGYSYHWYHVTYYSLGQGTQVTVSS	high polyreactivity
QVQLVESGGGLVQAGGSLRLSCAASGGTFHYYAMGWYRQAPGKERELVAAINRSGDSTYYADSVKGRFTISRDNAKNTVYLQMNSLKPEDTAVYYCAVSYYGADGNPFPHDYWGQGTQVTVSS	low polyreactivity
QVQLVESGGGLDQAGGSLRLSCAASGSTFYFYAMGWYRQAPGKEMELVAVISSGGRTYYADSVKGRFTISRDNAKNTVYLQMNSLKPEDTAVYYCAASWPSSLTYYYWGQGTQVTVSS	low polyreactivity
QVQLVESGGGLVQAGGSLRLSCAASGRILPGYALGWYRQAPGKERELVAAIRGNGDSTYYADSVKGRFTISRDNAKNTVYLQMNSLKPEDTAVYYCAARRVSTIPRDSYRGRKYGYWGQGTQVTVSS	low polyreactivity
QVQLVESGGGLVQAGGSLRLSCAASGSIFRSYAMGWYRQAPGKERELVAAISRRGSSTYYADSVKGRFTISRDNAKNTVYLQMNSLKPEDTAVYYCNRVRYPRVDYWGQGTQVTVSS	high polyreactivity
QVQLVESGGGLVQAGGSLRLSCAASGSIFRSNTMGWSRQAPGKERELVARISSTGGSTYYADSVKGRFTISRDNAKKTVYLQLNSLKPEDTAVYYCNKVRGINHLYDMNYWGQGTQVTVSS	high polyreactivity
QVQLVESGGGLVQAGGSLRLSCAASGSTFDYNAMGWYRQAPGKERELVAAITSTGGNTYYADSVKGRFTISRDHAKNTDYLQMNSLKPEDTAVYYCNKDVARYPYGNFDYWGQGTQVTVSS	low polyreactivity
QVKLVESGGGLVQAGGSLRLSCPASGRIFYTNARGWSRQQPGQESEFVAAISYSGGTTYYADSVKGRFTISRDNAKNNVYLQMNSLKPEDTAVYYCARRYRSYYYRSKMDYWGQGTQVTVSS	high polyreactivity
QVQLVESGGGLVQAGGSLRLSCAASGRTFVQNAMGWYRQAPGKERELVASIRYRDGSTYYADSVKGRFTISRDNAKNTVYLQMNSLKPEDTAVYYCAVRVTSDYYASRYYYWGQGSQVTVSS	high polyreactivity
QVQLVESGGGLVQAGGSLRLSCAASGNTFTYYALGWYRQAPGTEREVVASISSGGSTNYADSVKGRFTISRDNAKNTVYLQMNRLKPEDTAVYYCARGWSFSTRRFQHTRYYYWGQGTQVTVSS	high polyreactivity
QVQLVESGGGLVQAGGSLRLSCAASGIIFWGNAMGWYRQAPGKERELVATITGRGGSTYYADSVKGRFTISRDNAKNTVYLQMNSLKPEDTAVYYCAASGGRPIFFYDVWGGIVRHDYWGQGTQVTVSS	low polyreactivity
QVQLVESGGGLVQAGGSLRLSCAASGRTFARYAMGWYRQAPGKERELVASIRRGTSTNYADSVKGRFTISRDNAKNTVYLQMNSLKPEDTAVYYCAARVGTEGYHGDYWGQGTQVTVSS	high polyreactivity
QVQLVESGGGLVQAGGSLRLSCAASGITFRYYAMGWYRQAPGKERELVAAITRSGSTTYADSVKGRFTISRDNAKNTVYLQMNSLKPEDTAVYYCAVDYYYLTGGVDYWGQGTQVTVSS	low polyreactivity
QVQLVESGGGLVQAGGSLRLSCAASGRTFDYNAMGWYRQAPGKERELVAAISYSTGTTYYADSVKGRFTISRDNAKNTVYLQMNSLKPEDTAVYYCAAEIFYSEYGYWGQGTQVTVSS	low polyreactivity
QDQLVDSGGGLVQAGGSLRLSCAASGRIFSGNGMGWYSPAPGKERELVASISSGGRTYYADSVKGRFTISRDNAKITVYLQMNSLKPEDTAVYYCNRVASVRARDYDYWGQGTQVTVSS	high polyreactivity
QVQLVESGGGLVQAGGSLRLSCAASGFTLRLNAMGWYRQAPGKARELVAAITRSGGNTYYADSVKGRFTISRDNAKNTVYLEMNSLKPEDSAVYYCAVRQLDRRSPKYNYWGQGTQVTVSS	high polyreactivity
QVQLVESGGGLVQAGGSLRLSCAASGSIFYRYAMGWYRQAPGKERELFATITQSGVSTYYADSVKGRFTISRDNAKNTVFLQRISLKPEDTAVYYCAASYYYTIGPYLRKFDWGQGTQVTVSS	low polyreactivity
QVQLVESGGGLVQAGGSLRLSCAASGITFYGKAMGWYREAPGKERELGAAITGGGGTNYADSVKGRFTISRDNAKKTVYLQMTSLKPEDTAVYYCNRDYFVWFQRGQYKRGSSWYDNWGQGTQVTVSS	low polyreactivity
QVQLVESGGGLVQAGGSLRLSCAASGLIFRRYAMGWYIQAPGKEREFVAAIRYTGGGTYYADSVKGRFTISRDNAKNTVYLQMNRLKPEDTAVYYCNTVEYRWGYISKVPKYDYWGQGTQVTLSS	high polyreactivity
QVQLVESGGGLVQAGGSLRLSCAASGSILTVYSMGWYRQAPGKERELVARIRSGDRTYYADSVKGRFTISRDNAKNTVYLQMNSLKPEDTAVYYCAAGSQRRYYHTNWDSFNYWGQGTQVTVSS	low polyreactivity
QVQLVESGGGLVQAGGSLRLSCAASGFTFDYYDLGWYRQAPGKERELVAGITYSGGRTRYADSVKGRFTISRDNAKNTVYLQMNSLKPEDTSVDYCAARPGYPYRMNYWGQGTQVTVSS	low polyreactivity

Sequence	polyreactivity (PSR sort gate)
QVQLVESGVGIVQAGGSLRLSCAASGFTFDNYVMGWYRQAPGKERELVAAISTGSRTYYADSVKGRFTISRDNAKNTVYLQMNSLKPEDTAVYYCAASYVRRSWYSNDYWGQGTQVTVSS	high polyreactivity
QVQLVESGGGLVQAGGSLRLSCAASGSIFVGYAMGWYRQAPGKERELVARISSDGDTYYADSVKGRFTISRDNAKNTVYLQMNSLKPEDTAVYYCNADLYGGGDKSVISGLNGEYEYWGQGTQVTVSS	low polyreactivity
QVQLVESGGGLVQAGGSLRLSCAASGSTFIYYAMGWYRKAPGKEREFVAAISYRGGSTYYADSVKGRFTISRDNAKNTVYLQMNSLKPEDTAVYYCAASYRKWNDYWGQGTQVTVSS	high polyreactivity
QVQLVESGGGLVQAGGSLRLSCAASGSILRSYAMGWYRQAPGKERELVAVINGSGGRTYYADSVKGRFTISRDNAKNTVYLQMNSLKPEDTAVYYCAARRHTKRPGYDYWGQGTQVTVSS	low polyreactivity
QVQLVESGGGLVQAGGSLRLSCAASGLIFYYYVMGWYRQAPGKERELVARISTSGGSTYYADSVKGRFTISRDNAKNTVYLQMNSLKPEDTAVYYCAADHYGGRDYWGQGTQVTVSS	low polyreactivity
QVQLVESGGGLVQAGGSLRLSCAASGSIFDVYAMGWYRQAPGKERELVAAIRTRGGSTYYADSVKGRFTISRDNAKNTVYLQMNSLKPEDTAVYYCAAYPLVSWGRHGTKGDYWGQGTQVTVSS	low polyreactivity
QVQLVESGGGLVKAGGSLRLSCAASGSIIKRYAMGWYRQARGKERELVAAITQSGGRTYYADSVKGRFTISRDNAKNTVYLQMNSLKPEDTAVYYCNAVRWYLYDYWGQGTQVTVSS	high polyreactivity
QVQLQESGGGLVQAGGSLLSCAASGTISWVDEMGWYRQAPGNERELVAGIAGGGNTNYADSVKGRFTISRDNAKNTVYLKMNSLDTAVYYCAVVGFGRGTHIYWGQGTQVTVSS	high polyreactivity
QFQLVESGGGLVQARGSLRLSCAASGSTFRYYGMGWYRQTPGKERELVAAISSSGGSTYYADSVKGRFTISRDNAKITVYLKMNSLKPEDNAVYYCAAGSRFVSSRLYYWGQGTQVTVSS	high polyreactivity
QVQLVESGGGLVQAGGSLRLSCAASGITLAYNVMGWYRQAPGKERELVAGITRSGGSTYYADSVKGRFTISRDNAKNTVYLQMNSLKPEDTAVYYCAAGFTYLNYTPWYRFNYWGQGTQVTVSS	high polyreactivity
QVQLVESGGGLVQAGGSLRLSCAASGSILGYYAMGWYRPAPGKERELVAAISGRGGSTYYADSVKGRFTISRDNAKNTVYLQMNSLKPEDTAVYYCAVVWGSYYWGQGGGDYWGQGTQVTVSS	high polyreactivity
QVQLEESGGGLVQAGGSLRLSCAASGRIFYRYAMGWYRQAPGKERELVAAISWSGGSTNYADSVRGRFTISRDNAKNTVYLQMNSLKPEDTAVYYCAAKYRSIRESATYYYWGQGTQVTVSS	high polyreactivity
QVQLVETGGGLVQAGGSLRLSCAASGFTCYRNAIGWYRQAPRKDREIVAAITSDGITYYADSVKGRFTMSRDNAKNTVYLQMNSLKPEDTAVYYCAADVQADLYSYEYDYWGQGTQVTVSS	low polyreactivity
QVQLVESGGGLVQAGGSLRLSCAASGSIFSINAMVSYRQAPGKERELVAAISASGGSTYYADSVKGRFTISRDFAKITVYLHMNSLKPEDTAVFYCAAEGSPTGYDYWGQGTQVTVSS	low polyreactivity
QVQLVESGGGLVQAGGSLRLSCAASGSIFVTNGMGWYRQAPGKERELVAVISWGGGNTYYADSVKGRFTISRDNAKNTVYLLMNNLKPEDTAVYYCAVELYWDYYFTYGYWGKGTQVTVSS	low polyreactivity
QVQIVESAGGLVQAGGSLSLSCAASGITYVFYALGWYRQEPGKERELVSDMSWSGGITYYADSVMGRFTISRDNAKNTVYLQMNSLKPEDPAVYYCAATKRQTKYYGGTTDSIMYYWGQGTQVTVSS	low polyreactivity
QVQLVESGGGLVQAGGSLRLSCAASGRTFVYYAMGWYRQAPGKERELVAAITSGGNTYYADSVKGRFTISRDNAKNTDYLQMNSLKPEDTAVYYCAAKRRRSFDYWGQGTQVTVSS	high polyreactivity
QVQLVESGGGLVQAGGSLRLTCAASGSIFNGYAMGCYRQAPGKERELVAAIRTRGGSTYYADSVKGRFTISRDIAMNTVYLQMNSLKPEDTAVYYCAKRYFGWYGNFDYWGQGTQVTVSS	high polyreactivity
QVQLVESGGGLVQAGGSLRLSCAASGFTFSSNAMGWYRQAPGKQRELVAAISKGGGSTYYADSVKGRFTISRDNAKNTGYLQMNSLKPEDTAVYYCAKEYDTYAYTYPYNYWGQGTQVTVSS	high polyreactivity
QVQLVESGGGLVQAGGSLRLSCAASGLILRKYAMGWYRQAPGKEREFVAAITQTGSRSYYADSVKGRFTISRDNAKNTVYLQMNSLKPEDTAVYYCAARGTRAYRTYDYWGQGTQVTVSS	high polyreactivity
QVQLVESGGGLVQAGGSLRLSCAASGRIFSWYAMGWYRQAPGKERELVAAITVRGSTYYADSVKGRFTISRDNAKNTVYLQMNSLKPEDTAVYYCAAGGYPGTTYYGYDYWGQGTQVTVSS	low polyreactivity
